# According to US20180155413A1 (AstraZeneca / MedImmune, published 2018):
# B1: FY1/39 BiS1 100/44 (bispecific antibody)
# light: DIQMTQSPSSVSASVGDRVTITCRASQDISTWLAWYQQKPGKAPKLLIYAASSLQSGVPSRFSGSGSGTDFTLTISSLQPEDFATYFCQQANSFPPTFGCGTKLEIKGGGGSGGGGSGGGGSGGGGSEVQLVVSGGGLVKPGGSLRLSCAASGLSFLNAWMSWVRQAPGKCLEWVGRIKSNTDGGTTDYAAPVKGRFSISRDDSKNMLFLHMSSLRTEDTAVYYCATDGPYSDDFRSGYAARYRYFGMDVWGQGTTVTVSSGGGGSGGGGSDIQMTQSPSSLSASVGDRVTITCRTSQSLSSYLHWYQQKPGKAPKLLIYAASSLQSGVPSRFSGSGSGTDFTLTISSLQPEDFATYYCQQSRTFGQGTKVEIKRTVAAPSVFIFPPSDEQLKSGTASVVCLLNNFYPREAKVQWKVDNALQSGNSQESVTEQDSKDSTYSLSSTLTLSKADYEKHKVYACEVTHQGLSSPVTKSFNRGEC
# heavy: not shown
# B2: FY1/39 BiS2 100/44 (bispecific antibody)
# light: DIQMTQSPSSLSASVGDRVTITCRTSQSLSSYLHWYQQKPGKAPKLLIYAASSLQSGVPSRFSGSGSGTDFTLTISSLQPEDFATYYCQQSRTFGQGTKVEIKRTVAAPSVFIFPPSDEQLKSGTASVVCLLNNFYPREAKVQWKVDNALQSGNSQESVTEQDSKDSTYSLSSTLTLSKADYEKHKVYACEVTHQGLSSPVTKSFNRGEC
# heavy: not shown
# B3: FY1/39 BiS3 100/44 (bispecific antibody)
# light: B2 light
# heavy: not shown
# Target: HA of A/Beijing/262/95 (H1N1) (influenza A virus)
# Test: cell-based or functional assay
row,Binder,Neutralization (IC50) [nM]
1,B1,62.2
2,B2,61.3
3,B3,20.2

# Target: HA of A/Shan dong/9/93 (H3N2) (influenza A virus)
# Test: cell-based or functional assay
row,Binder,Neutralization (IC50) [nM]
1,B1,> 1000
2,B2,72.1
3,B3,7.8

# Target: HA of A/Wilson Smith N/33 (H1N1) (influenza A virus, UniProt P03454 18-565)
# Test: cell-based or functional assay
# Sequence of HA of A/Wilson Smith N/33 (H1N1) (P03454 18-565 limits assumed): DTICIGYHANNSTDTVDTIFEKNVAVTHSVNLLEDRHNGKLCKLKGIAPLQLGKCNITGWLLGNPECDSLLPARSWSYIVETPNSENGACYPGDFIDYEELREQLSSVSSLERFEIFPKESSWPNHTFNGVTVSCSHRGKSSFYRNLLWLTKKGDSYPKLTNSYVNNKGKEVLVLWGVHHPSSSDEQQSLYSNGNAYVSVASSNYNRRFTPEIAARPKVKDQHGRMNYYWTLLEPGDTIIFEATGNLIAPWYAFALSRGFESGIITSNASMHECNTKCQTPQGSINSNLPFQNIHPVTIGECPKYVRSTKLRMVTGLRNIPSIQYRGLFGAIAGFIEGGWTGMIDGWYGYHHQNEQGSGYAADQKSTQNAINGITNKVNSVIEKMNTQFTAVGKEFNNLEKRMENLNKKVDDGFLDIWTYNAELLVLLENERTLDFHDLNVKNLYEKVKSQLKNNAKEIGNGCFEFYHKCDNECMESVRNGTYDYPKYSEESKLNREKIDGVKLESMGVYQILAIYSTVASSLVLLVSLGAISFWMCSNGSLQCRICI
row,Binder,Neutralization (IC50) [nM]
1,B1,28.2
2,B2,17.7
3,B3,10.6

# Target: HA of A/Victoria/3/75 (H3N2) (influenza A virus)
# Test: cell-based or functional assay
row,Binder,Neutralization (IC50) [nM]
1,B1,337
2,B2,> 1000
3,B3,45.2

# Target: HA of B/Malaysia/2506/2004 (victoria) (influenza B virus)
# Test: cell-based or functional assay
row,Binder,Neutralization (IC50) [nM]
1,B1,4.1
2,B2,5.6
3,B3,43.7

# Target: HA of B/Ohio/1/2005 (victoria) (influenza B virus)
# Test: cell-based or functional assay
row,Binder,Neutralization (IC50) [nM]
1,B1,2.6
2,B2,2.8
3,B3,8.1

# Target: HA of B/Hong Kong/330/2001 (victoria) (influenza B virus)
# Test: cell-based or functional assay
row,Binder,Neutralization (IC50) [nM]
1,B1,5.3
2,B2,7
3,B3,112

# Target: HA of ca A/Panama/2007/99 (H3N2) (influenza A virus)
# Test: cell-based or functional assay
row,Binder,Neutralization (IC50) [nM]
1,B1,> 1000
2,B2,> 1000
3,B3,149

# Target: HA of B/Sichuan/379/99 (yamagata) (influenza B virus)
# Test: cell-based or functional assay
row,Binder,Neutralization (IC50) [nM]
1,B1,1.5
2,B2,2.1
3,B3,12.3

# Target: HA of A/California/07/2009 (H1N1) (influenza A virus)
# Test: cell-based or functional assay
row,Binder,Neutralization (IC50) [nM]
1,B1,32.5
2,B2,18.7
3,B3,9.9

# Target: HA of B/Yamanashi/166/98 (yamagata) (influenza B virus)
# Test: cell-based or functional assay
row,Binder,Neutralization (IC50) [nM]
1,B1,0.1
2,B2,0.4
3,B3,0.7

# Target: HA of A/Solomon Island/3/2006 (H1N1) (influenza A virus)
# Test: cell-based or functional assay
row,Binder,Neutralization (IC50) [nM]
1,B1,14.7
2,B2,9.9
3,B3,2.5

# Target: HA of A/Hong Kong/8/68 (H3N2) (influenza A virus)
# Test: cell-based or functional assay
row,Binder,Neutralization (IC50) [nM]
1,B1,31.4
2,B2,10.2
3,B3,5.8

# Target: HA of ca B/Beijing/243/97 (victoria) (influenza B virus)
# Test: cell-based or functional assay
row,Binder,Neutralization (IC50) [nM]
1,B1,3.6
2,B2,6.1
3,B3,21.5

# Target: HA of B/Florida/4/2006 (yamagata) (influenza B virus)
# Test: cell-based or functional assay
row,Binder,Neutralization (IC50) [nM]
1,B1,1.1
2,B2,1.7
3,B3,5.9
